# Values quoted from earlier work, collected in patent publication US10507248B2, “Hydrophobic core carrier compositions for delivery of therapeutic agents, methods of making and using the same” (PharmaIn Corporation, priority 2005, dated 2019).
# B1: native EGF: native Epidermal Growth Factor with short biological half-life (protein, UniProt P01133 23-1207, looked up)
# Pro-epidermal growth factor: PQHWSCPEGTLAGNGNSTCVGPAPFLIFSHGNSIFRIDTEGTNYEQLVVDAGVSVIMDFHYNEKRIYWVDLERQLLQRVFLNGSRQERVCNIEKNVSGMAINWINEEVIWSNQQEGIITVTDMKGNNSHILLSALKYPANVAVDPVERFIFWSSEVAGSLYRADLDGVGVKALLETSEKITAVSLDVLDKRLFWIQYNREGSNSLICSCDYDGGSVHISKHPTQHNLFAMSLFGDRIFYSTWKMKTIWIANKHTGKDMVRINLHSSFVPLGELKVVHPLAQPKAEDDTWEPEQKLCKLRKGNCSSTVCGQDLQSHLCMCAEGYALSRDRKYCEDVNECAFWNHGCTLGCKNTPGSYYCTCPVGFVLLPDGKRCHQLVSCPRNVSECSHDCVLTSEGPLCFCPEGSVLERDGKTCSGCSSPDNGGCSQLCVPLSPVSWECDCFPGYDLQLDEKSCAASGPQPFLLFANSQDIRHMHFDGTDYGTLLSQQMGMVYALDHDPVENKIYFAHTALKWIERANMDGSQRERLIEEGVDVPEGLAVDWIGRRFYWTDRGKSLIGRSDLNGKRSKIITKENISQPRGIAVHPMAKRLFWTDTGINPRIESSSLQGLGRLVIASSDLIWPSGITIDFLTDKLYWCDAKQSVIEMANLDGSKRRRLTQNDVGHPFAVAVFEDYVWFSDWAMPSVMRVNKRTGKDRVRLQGSMLKPSSLVVVHPLAKPGADPCLYQNGGCEHICKKRLGTAWCSCREGFMKASDGKTCLALDGHQLLAGGEVDLKNQVTPLDILSKTRVSEDNITESQHMLVAEIMVSDQDDCAPVGCSMYARCISEGEDATCQCLKGFAGDGKLCSDIDECEMGVPVCPPASSKCINTEGGYVCRCSEGYQGDGIHCLDIDECQLGEHSCGENASCTNTEGGYTCMCAGRLSEPGLICPDSTPPPHLREDDHHYSVRNSDSECPLSHDGYCLHDGVCMYIEALDKYACNCVVGYIGERCQYRDLKWWELRHAGHGQQQKVIVVAVCVVVLVMLLLLSLWGAHYYRTQKLLSKNPKNPYEESSRDVRSRRPADTEDGMSSCPQPWFVVIKEHQDLKNGGQPVAGEDGQAADGSMQPTSWRQEPQLCGMGTEQGCWIPVSSDKGSCPQVMERSFHMPSYGTQTLEGGVEKPHSLLSANPLWQQRALDPPHQMELTQ
# modifications: Pro-epidermal growth factor
# Settings: in vivo
molecule,measurement,value
B1,biological half-life,few minutes
